In PMC6254359, “A helical LC3-interacting region mediates the interaction between the retroviral restriction factor Trim5α and mammalian autophagy-related ATG8 proteins” (The Journal of Biological Chemistry, 2018):
Residue numbers refer to the chain shown, from its start. Names may count otherwise.

B1: Trim5α from Rhesus macaque, Bbox coiled-coil regions, residues 88–296 with the E120K/R121D mutation (domain or fragment, UniProt Q0PF16 88-296, looked up)
chain: PEEGQKVDHCARHGEKLLLFCQEDSKVICWLCKDSQEHRGHHTFLMEEVAQEYHVKLQTALEMLRQKQQEAEKLEADIREEKASWKIQIDYDKTNVSADFEQLREILDWEESNELQNLEKEEEDILKSLTKSETEMVQQTQYMRELISELEHRLQGSMMDLLQGVDGIIKRIENMTLKKPKTFHKNQRRVFRAPDLKGMLDMFRELTDA
B2: W196A RhT5 88–296 EK/RD (domain or fragment, Rhesus macaque, UniProt Q0PF16 88-296, looked up)
chain: B1 chain with W109A
B3: RhT5 88–296 EK/RD E192K (domain or fragment, Rhesus macaque, UniProt Q0PF16 88-296, looked up)
chain: B1 chain with E105K
B4: RhT5 88–296 EK/RD E206K (domain or fragment, Rhesus macaque, UniProt Q0PF16 88-296, looked up)
chain: B1 chain with E119K
B5: RhT5 88–296 EK/RD E206A (domain or fragment, Rhesus macaque, UniProt Q0PF16 88-296, looked up)
chain: B1 chain with E119A
B6: RhT5 88–296 EK/RD E197A (domain or fragment, Rhesus macaque, UniProt Q0PF16 88-296, looked up)
chain: B1 chain with E110A
B7: RhT5 88–296 EK/RD E198K (domain or fragment, Rhesus macaque, UniProt Q0PF16 88-296, looked up)
chain: B1 chain with E111K
B8: RhT5 88–296 EK/RD Q189A (domain or fragment, Rhesus macaque, UniProt Q0PF16 88-296, looked up)
chain: B1 chain with Q102A
B9: RhT5 88–296 EK/RD E192A (domain or fragment, Rhesus macaque, UniProt Q0PF16 88-296, looked up)
chain: B1 chain with E105A
B10: RhT5 88–296 EK/RD Q203A (domain or fragment, Rhesus macaque, UniProt Q0PF16 88-296, looked up)
chain: B1 chain with Q116A

What was measured:
[1] = molecular target: the molecule itself; test: AUC; sedimentation velocity, c(s) analysis of each protein alone at 20 μM; 20 °C; 10 mM Tris/HCl pH 8, 150 mM NaCl, 0.1 mM TCEP
LC3B H27A = LC3B H27A (UniProt Q9GZQ8 2-119, His27 to alanine); test: AUC; sedimentation velocity, c(s) analysis of equimolar mixtures, 20 μM each; 20 °C, 50,000 rpm; 10 mM Tris/HCl pH 8, 150 mM NaCl, 0.1 mM TCEP; shift of the fast-moving peak; conditions: both partners purified
LC3B I23R = LC3B I23R (UniProt Q9GZQ8 2-119, Ile23 to arginine); test: as above; conditions: both partners purified
GABARAPL1 = molecular target: T1, GABARAPL1 (UniProt Q9H0R8 1-117); test: AUC; sedimentation velocity, 20 μM RhT5 88–296 EK/RD with 0–320 μM LC3B or GABARAPL1; S value of the fast peak against concentration, one-site binding model; 20 °C; 10 mM Tris/HCl pH 8, 150 mM NaCl, 0.1 mM TCEP; conditions: both partners purified
T1 construct: also called mATG8 isoform GABARAPL1

[2] = molecular target: the molecule itself; test: SEC-MALS + AUC; Trim5α mutants alone; SEC–MALLS on Superdex 75 Increase 10/300 in 10 mM Tris/HCl pH 7.8, 150 mM NaCl, 0.1 mM TCEP, 3 mM azide, and c(s) analysis of sedimentation velocity
[3] = molecular target: autophagy-related protein LC3 B (LC3B), construct 2–119 (UniProt Q9GZQ8 2-119); test: AUC; sedimentation velocity, c(s) analysis of equimolar mixtures, 20 μM each; 20 °C, 50,000 rpm; 10 mM Tris/HCl pH 8, 150 mM NaCl, 0.1 mM TCEP; shift of the fast-moving peak; conditions: both partners purified

Row | Binder | stoichiometry N [2] | binding result [3] | other results
1 | B1 | – | – | stoichiometry N [1]: 2; binding result (LC3B H27A): binds; binding result (LC3B I23R): binds; Kd (GABARAPL1): 78 ± 6 µM
2 | B2 | 2 | – | –
3 | B3 | 2 | – | –
4 | B4 | 2 | – | –
5 | B5 | 2 | – | –
6 | B6 | 2 | binds | –
7 | B7 | 2 | binds | –
8 | B8 | 2 | binds | –
9 | B9 | 2 | – | –
10 | B10 | 2 | binds | –
